{"source": "paper PMC2064962", "about": "“Inhibition of Protein Aggregation: Supramolecular Assemblies of Arginine Hold the Key” (PLoS ONE, 2007)", "molecular_target": "the molecule itself", "assay": "SEC; SMART Superdex G75 column, 0.02 M sodium phosphate buffer pH 7.4 (PB), with or without 0.2 M arginine; 10 µg peptide in 50 µl, flow 100 µl/min, monitored at 257 nm; self-association, monomer and tetramer seen"}
{"protein": "DAEFGHDSGFEVRHQKLVFFAEDVGSNKGAIIGLMVGGVVIA (Amyloid beta 1-42, the cut product of mouse amyloid precursor protein (APP); numbers count on: the Aβ peptide; it was removed; also called Aβ_(1-42); mouse Aβ_(1-42); source: synthetic peptide (Fmoc chemistry, purified on ProRPC C-18); dissolved in 0.01 M NaOH before use)", "note": "[Mouse Alzheimer's amyloid beta 1-42 peptide]", "values": [{"measurement": "stoichiometry N", "value": 4}]}
